Source: paper PMC3048824 (Journal of molecular biology, 2009)
Values joined by “and” are separate entries in the source; they are usually repeats but may differ in a detail not shown here. Equal values may be shown once.

Columns and labels:
AUC = molecular target: the molecule itself; assay: AUC
[1] = molecular target: the molecule itself; assay: GdmCl-induced equilibrium unfolding-refolding monitored by CD

Protein | stoichiometry N (AUC) | Keq ([U]^3/[N], native trimer to unfolded monomers, in water) [1] [mol^2]
full-length NC1 domain of murine collagen XVIII (domain or fragment) AGQVRIWATYQTMLDKIREVPEGWLIFVAEREELYVRVRNGFRKVLLEARTALPRGTGNEVAALQPPLVQLHEGSPYTRREYSYSTARPWRADDILANPPRLPDRQPYPGVPHHHSSYVHLPPARPTLSLAHTHQDFQPVLHLVALNTPLSGGMRGIRGADFQCFQQARAVGLSGTFRAFLSSRLQDLYSIVRRADRGSVPIVNLKDEVLSPSWDSLFSGSQGQLQPGARIFSFDGRDVLRHPAWPQKSVWHGSDPSGRRLMESYCETWRTETTGATGQASSLLSGRLLEQKAASCHNSYIVLCIENSFMTSFSK | 2.56 | –
full-length NC1 domain of murine collagen XV (domain or fragment) NLVTALSDMGDMLQKAHLVIEGTFIYLRDSGEFFIRVRDGWKKLQLGELIPIPADSPPPPALSSNPYQPQPPLNPILSANYERPVLHLVALNTPVAGDIRADFQCFQQARAAGLLSTFRAFLSSHLQDLSTVVRKAERFGLPIVNLKGQVLFNNWDSIFSGDGGQFNTHIPIYSFDGRDVMTDPSWPQKVVWHGSNPHGVRLVDKYCEAWRTTDMAVTGFASPLSTGKILDQKAYSCANRLIVLCIENSFMTDTRK | 3.11 and 3.6 | –
NC1(54) peptide of human collagen XVIII (domain or fragment) GSSGVRLWATRQAMLGQVHEVPEGWLIFVAEQEELYVRVQNGFRKVQLEARTPLPR | – | 2.4e-21
